{
  "source": "paper PMC6957492",
  "about": "“Assembly and substrate recognition of curli biogenesis system” (Nature Communications, 2020)",
  "molecules": {"B1": {"name": "PeptideN_(N17R) (peptide)", "peptide": "GTMTFQFRNPNFGGNPR", "notes": "source: synthetic peptide"}, "B2": {"name": "CsgG (from the CsgEFG operon construct with C-terminal strep-tag II) (natural protein, E. coli K12, UniProt P0AEA2 16-277, looked up)", "chain": "CLTAPPKEAARPTLMPRAQSYKDLTHLPAPTGKIFVSVYNIQDETGQFKPYPASNFSTAVPQSATAMLVTALKDSRWFIPLERQGLQNLLNERKIIRAAQENGTVAINNRIPLQSLTAANIMVEGSIIGYESNVKSGGVGARYFGIGADTQYQLDQIAVNLRVVNVSTGEILSSVNTSKTILSYEVQAGVFRFIDYQRLLEGEVGYTSNEPVMLCLMSAIETGVIFLINDGIDRGLWDLQNKAERQNDILVKYRHMSVPPES", "notes": "also called CsgG channel; CsgG subcomplex; source: E. coli BL21 (DE3), co-expressed from the CsgEFG operon; membrane fraction solubilised in DDM/LDAO, purified (Strep-Tactin, SEC); not shown: strep-tag II, C-terminal, kept"}, "B3": {"name": "CsgAN6 peptide (peptide)", "peptide": "GVVPQY"}, "B4": {"name": "CsgF (from the CsgEFG operon) (natural protein, E. coli K12, UniProt P0AE98 20-138, looked up)", "chain": "GTMTFQFRNPNFGGNPNNGAFLLNSAQAQNSYKDPSYNDDFGIETPSALDNFTQAIQSQILGGLLSNINTGKPGRMVTNDYIVDIANRDGQLQLNVTDRKTGQTSTIQVSGLQNNSTDF", "notes": "also called CsgFN (residues 1-36) and CsgFC (residues 37-119) are its domains; source: E. coli BL21 (DE3), co-expressed from the CsgEFG operon, co-purified with CsgG (Strep-Tactin, SEC)"}, "B5": {"name": "F7D (protein)", "chain": "B4 chain with F7D", "modifications": "left off: MBP, end not stated, kept | His tag (from the Ni-NTA purification), end not stated, state not stated"}, "B6": {"name": "N9A (protein)", "chain": "B4 chain with N9A", "modifications": "left off: MBP, end not stated, kept | His tag (from the Ni-NTA purification), end not stated, state not stated"}, "B7": {"name": "F21D (protein)", "chain": "B4 chain with F21D", "modifications": "left off: MBP, end not stated, kept | His tag (from the Ni-NTA purification), end not stated, state not stated"}, "B8": {"name": "R8A (protein)", "chain": "B4 chain with R8A", "modifications": "left off: MBP, end not stated, kept | His tag (from the Ni-NTA purification), end not stated, state not stated"}, "B9": {"name": "F5D (protein)", "chain": "B4 chain with F5D", "modifications": "left off: MBP, end not stated, kept | His tag (from the Ni-NTA purification), end not stated, state not stated"}, "B10": {"name": "L22D (protein)", "chain": "B4 chain with L22D", "modifications": "left off: MBP, end not stated, kept | His tag (from the Ni-NTA purification), end not stated, state not stated"}, "B11": {"name": "N11A (protein)", "chain": "B4 chain with N11A", "modifications": "left off: MBP, end not stated, kept | His tag (from the Ni-NTA purification), end not stated, state not stated"}, "B12": {"name": "CsgFN17R: N17R-mutated CsgF (protein, UniProt P0AE98 20-138, looked up, variant N17R)", "Curli production …": "B4 chain with N17R"}, "B13": {"name": "L23D (protein)", "chain": "B4 chain with L23D", "modifications": "left off: MBP, end not stated, kept | His tag (from the Ni-NTA purification), end not stated, state not stated"}, "B14": {"name": "F12D (protein)", "chain": "B4 chain with F12D", "modifications": "left off: MBP, end not stated, kept | His tag (from the Ni-NTA purification), end not stated, state not stated"}, "B15": {"name": "CsgFC: CsgF C-terminal domain (residues 37–119) (protein)", "chain": "YNDDFGIETPSALDNFTQAIQSQILGGLLSNINTGKPGRMVTNDYIVDIANRDGQLQLNVTDRKTGQTSTIQVSGLQNNSTDF", "modifications": "left off: MBP, C-terminal, kept | His tag (from the Ni-NTA purification of the input), end not stated, state not stated"}},
  "key": {"CsgG": {"tested_on": "CsgG", "assay": "Pulldown assay of CsgF variants/domains with CsgG as bait", "assay_type": "binding, E. coli K12", "conditions": "CsgF variants with C-terminal MBP tag", "description": "The procedure of CsgG purification was similar to that of the CsgFG complex. […] After incubation for 30 min, the mixture was loaded into a Strep-Tactin column (IBA). […] Individual CsgG and CsgF variants were purified as input by Strep-Tactin and Ni-NTA, respectively. The samples were analyzed by 15% SDS–PAGE and stained with Coomassie blue.\nCsgFGBD-MBP mutant variants were purified as soluble protein by Ni-NTA. CsgG were purified as membrane protein by Strep-Tactin and substituted by amphipole A8-35. CsgFGBD-MBP mutant variants (36 μM) and CsgG nonamer (2 μM) were mixed together at 4 °C for 2 h and then incubated with equal volume of Strep-Tactin beads at 4 °C for 1 h.\nSupplementary Figure 5. Interaction mode between CsgFN and CsgG. a, Interaction of CsgFN and CsgG. […] Two adjacent subunits of CsgG are shown in magenta and cyan, respectively. b, Hydrogen bonds and electrostatic interaction between CsgFN and CsgG. Hydrogen bonds are shown as red […]\naromatic residues in CsgG. d, The hydrophobic interaction between CsgFN and CsgG. e, Pulldown assay between the CsgF(C-terminal MBP tag) mutant variants and CsgG. […] Source data are provided as a Source Data file.\n(1 picture or pasted object on this page, not shown here)"}, "[1]": {"tested_on": "PapD2 and CpxP passage through CsgG", "conditions": "cited from earlier work", "text": "Tyr51, Asn55, and Phe56 residues of CsgG were reported to constitute three stacked concentric rings to form a pore structure in the nonameric channel, which was essential to limit the passage of the folded proteins[22] (Fig. 2a)."}, "CsgB [2]": {"tested_on": "CsgB", "assay": "Pulldown assay of CsgB by CsgF domains", "assay_type": "binding, E. coli", "conditions": "CsgB C-terminal MBP tag, CsgF parts N-terminal MBP tag; western blot"}, "CsgB [3]": {"tested_on": "CsgB", "conditions": "cited from earlier work", "text": "CsgFC was flexible, and was observed as fuzzy densities on the extracellular side of the CsgFG channel (Fig. 1c and Supplementary Fig. 1d), which should be responsible for interacting with CsgB. To further clarify CsgF function, we first performed a pulldown assay using CsgG as a bait. […] Therefore, CsgF ..."}, "CsgA": {"tested_on": "CsgA", "conditions": "CsgF and CsgB as baits (N-terminal MBP tag), CsgA C-terminal MBP tag", "description": "The cells were induced with 0.5 mM IPTG for 4 h at 37 °C. […] After incubation for 20 min, the mixture was loaded to a Strep-Tactin column (IBA). The beads were washed four times with a buffer having 25 mM Tris-HCl at pH 8.0, 150 mM NaCl, and eluted in a buffer having 25 mM Tris-HCl at pH 8.0, 150 mM NaCl, and 2.5 mM desthiobiotin. […] The samples were analyzed by 15% SDS–PAGE and detected by western blotting."}, "[4]": {"biological_target": "T1, Wild-type CsgG (expressed alone) (E. coli K12, UniProt P0AEA2 16-277)", "T1 chain": "B2 chain", "assay": "ITC"}, "[5]": {"biological_target": "T2, Wild-type CsgG (expressed alone) (E. coli K12, UniProt P0AEA2 16-277)", "T2 construct": "also called CsgG nonamer; nonameric CsgG", "T2 sequence (looked up)": "B2 chain", "assay": "ITC; MicroCal ITC200, 25 °C; nonameric CsgG in amphipole A8-35 in the cell (2 or 10 μM), CsgFN-MBP (200 μM), CsgAN6 peptide (1 mM) or PeptideN (60 µM) in the syringe; 10 mM HEPES pH 7.5, 50 mM NaCl", "conditions": "both partners purified"}, "[6]": {"biological_target": "the molecule itself", "assay": "cryo-EM structure; CsgFG complex co-expressed from the CsgEFG operon, purified in LDAO; single-particle cryo-EM, 3.8 Å without symmetry, 3.38 Å with C9 symmetry"}, "[7]": {"tested_on": "curli cell association in E. coli K-12 strain BW25113", "assay": "Congo red cell-association assay", "assay_type": "cell-based, E. coli K-12 BW25113", "conditions": "CsgF variants, scraped YESCA plates after 48 h", "description": "(§1) The E. coli K-12 strain BW25113 wild type (WT) and mutants were cultured overnight in LB at 37 °C. To induce curli production, 5 μl sample was spotted on YESCA plates (10 g/L casamino acids, 1 g/L yeast extract, and 20 g/L Bacto agar) supplemented with 100 μg/ml ampicillin and 90 μg/ml Congo red. The plates were incubated at 26 °C for 48 h. […] For overexpression assay in the ΔCsgE mutant strain, 3 μM IPTG was also supplemented in the YESCA plates.\nFor the Congo red cell-association assay, after growing in YESCA plates for 48 h, the cells were scraped from the plates and the scraped plates were observed. The remaining plates with curli cell association appeared white, while the remaining plates without curli cell association appeared red."}, "[8]": {"tested_on": "curli production in E. coli K-12 strain BW25113", "assay": "Congo red secretion assay of CsgF, CsgA or CsgG variants", "assay_type": "cell-based, E. coli K-12 BW25113", "description": "as §1"}},
  "note": "Numbering of substitutions follows the chain as printed. Names and notes keep the numbering of the source. “Also recorded” adds a separate entry of the source.",
  "data": [
    {"molecule": "CsgF: soluble accessory factor of the curli secretion system", "values": [
      {"measurement": "CsgF-CsgG interaction in pulldown", "setting": "CsgG", "result": "CsgG can pulldown both the full-length CsgF and CsgFN"},
      {"measurement": "leakage of PapD2 and CpxP in the presence of CsgF", "setting": "[1]", "result": "considerably reduced leakage"},
      {"measurement": "pulldown of CsgB", "setting": "CsgB [2]", "result": "full-length CsgF and CsgFC could"},
      {"measurement": "binding to CsgB", "setting": "CsgB [3]", "result": "can also bind to CsgB"},
      {"measurement": "interaction with CsgA in pulldown", "setting": "CsgA", "result": "did not directly interact with CsgA"}
    ]},
    {"molecule": "CsgFN: N-terminal domain of CsgF (CsgFN, residues 1–36)", "values": [
      {"measurement": "CsgF-CsgG interaction in pulldown", "setting": "CsgG", "result": "CsgG can pulldown both the full-length CsgF and CsgFN"},
      {"measurement": "pulldown of CsgB", "setting": "CsgB [2]", "result": "could not pulldown CsgB"}
    ]},
    {"molecule": "B1", "values": [
      {"measurement": "Kd", "setting": "[4]", "result": 14.1, "unit": "nM"},
      {"measurement": "binding result", "setting": "[5]", "result": "binds"}
    ]},
    {"molecule": "B2", "values": [
      {"measurement": "stoichiometry N", "setting": "[6]", "result": 9, "unit": "subunits"}
    ]},
    {"molecule": "B3", "values": [
      {"measurement": "Kd", "setting": "[5]", "result": 23.8, "unit": "µM"}
    ]},
    {"molecule": "B4", "values": [
      {"measurement": "stoichiometry N", "setting": "[6]", "result": 9, "unit": "subunits"}
    ]},
    {"molecule": "B5", "values": [
      {"measurement": "CsgF-CsgG interaction in pulldown", "setting": "CsgG", "result": "abolished the interaction between CsgF and CsgG; also recorded: didn’t see binding"},
      {"measurement": "Congo red cell-association phenotype", "setting": "[7]", "result": "nearly eliminated"}
    ]},
    {"molecule": "B6", "values": [
      {"measurement": "CsgF-CsgG interaction in pulldown", "setting": "CsgG", "result": "showed reduced interaction between CsgF and CsgG"}
    ]},
    {"molecule": "B7", "values": [
      {"measurement": "CsgF-CsgG interaction in pulldown", "setting": "CsgG", "result": "did not show any detectable influence on CsgF-CsgG interaction"}
    ]},
    {"molecule": "B8", "values": [
      {"measurement": "CsgF-CsgG interaction in pulldown", "setting": "CsgG", "result": "showed reduced interaction between CsgF and CsgG"}
    ]},
    {"molecule": "B9", "values": [
      {"measurement": "CsgF-CsgG interaction in pulldown", "setting": "CsgG", "result": "abolished the interaction between CsgF and CsgG"},
      {"measurement": "Congo red cell-association phenotype", "setting": "[7]", "result": "nearly eliminated"}
    ]},
    {"molecule": "B10", "values": [
      {"measurement": "CsgF-CsgG interaction in pulldown", "setting": "CsgG", "result": "showed reduced interaction between CsgF and CsgG"}
    ]},
    {"molecule": "B11", "values": [
      {"measurement": "CsgF-CsgG interaction in pulldown", "setting": "CsgG", "result": "did not show any detectable influence on CsgF-CsgG interaction"}
    ]},
    {"molecule": "B12", "values": [
      {"measurement": "Congo red secretion phenotype (curli formation)", "setting": "[8]; CsgF variants in ∆CsgF strain, YESCA/Congo red plates, 26 °C, 48 h", "result": "loss of the Congo red phenotype"},
      {"measurement": "Congo red secretion phenotype", "setting": "[8]; N17R-mutated CsgF expressed in wild type (WT) strain", "result": "largely reduced Congo red phenotype"}
    ]},
    {"molecule": "B13", "values": [
      {"measurement": "CsgF-CsgG interaction in pulldown", "setting": "CsgG", "result": "showed reduced interaction between CsgF and CsgG"}
    ]},
    {"molecule": "B14", "values": [
      {"measurement": "CsgF-CsgG interaction in pulldown", "setting": "CsgG", "result": "abolished the interaction between CsgF and CsgG"},
      {"measurement": "Congo red cell-association phenotype", "setting": "[7]", "result": "nearly eliminated"}
    ]},
    {"molecule": "B15", "values": [
      {"measurement": "CsgF-CsgG interaction in pulldown", "setting": "CsgG", "result": "unlikely to interact with CsgG"},
      {"measurement": "pulldown of CsgB", "setting": "CsgB [2]", "result": "full-length CsgF and CsgFC could"}
    ]}
  ]
}
